According to patent US20210261665A1 (TAYU HUAXIA BIOTECH MEDICAL GROUP, published 2021):
Numbering of substitutions follows the chain as printed. Names and notes keep the numbering of the source. One block for each binder: values may come before it.

What was measured:
human PD-1 on cells [1] = biological target: T1, human PD-1 on cells (human, UniProt Q15116 25-288); experiment: flow cytometry on CHO/hPD-1 cells, anti-mIgG-APC
T1 construct: whole, on cells; also called hPD-1; CHO/hPD-1
Protocol: CHO/hPD-1 cells were incubated anti-PD-1 mAbs on ice. After incubation, the cells were washed and further incubated with anti-mIgG-APC (eBiosciences). Flow cytometry analysis was performed using a FACSVerse (BD Biosciences). […] These cells were also stained with their respective positive antibodies respectively as positive control.

hPD-1 mIg fusion protein = biological target: T2, hPD-1 mIg fusion protein (human; mouse, UniProt Q15116 25-170); experiment: SPR Biacore T100, hPD-1mIg immobilised by amine coupling, antibody as analyte
T2 construct: extracellular domain; not shown: CH2-CH3 domain of mouse IgG2a heavy chain (plasmid pmIgG)
Protocol: Binding affinity and kinetics determination of the humanized antibodies: The binding affinity and kinetics of the humanized PD-1 mAbs interact with hPD-1 protein was assessed with Biacore T100 (GE Healthcare Life Sciences). […] Nine different concentrations were tested for each sample. Detailed binding kinetic parameters (association rate, Ka, dissociation rate, Kd, and affinity constant, KD) can be determined by full kinetic analysis.

Biotin-hPD-1 [2] = biological target: T3, Biotin-hPD-1 (human, UniProt Q15116 25-167, limits assumed, biotin label, site not stated); experiment: competitive ELISA: competitive Ab 15 µg/ml with Biotin-hPD-1; coating Ab Pembrolizumab 1 µg/ml
Protocol: (§1) A serial dilution of competing antibodies and Biotin-hPD-1 were added to ELISA plates pre-coated with 1 μg/ml a test antibody. HRP conjugated streptavidin was then added, followed by the addition of substrate TMB and quantification with a SpectraMax Plus 384 Microplate Reader at 450 nm wavelength.

Biotin-hPD-1 [3] = biological target: T3, Biotin-hPD-1; experiment: competitive ELISA: competitive Ab 15 µg/ml with Biotin-hPD-1; coating Ab TY101-04-T3-05 1 µg/ml
Protocol: as §1

[4] = biological target: hPD-1 protein (ELISA coat) (human, UniProt Q15116 25-167, limits assumed); experiment: ELISA against hPD-1 ECD-Fc protein (plate coat)
Protocol: (§2) The bindings of the antibodies to hPD-1 and the cross-reactivity to mPD-1 proteins were tested by ELISA. A serial dilution of test antibodies were added to ELISA plates pre-coated with 1 μg/ml hPD-1 or mPD-1. HRP conjugated goat anti-human IgG or goat anti-mouse IgG antibody was then added, followed by the addition of substrate Tetramethylbenzidine (TMB) and quantification with a SpectraMax Plus 384 Microplate Reader (Molecular Device, LLC., Sunnyvale, Calif.) at 450 nm wavelength.

Biotin-hPD-1 [5] = biological target: T3, Biotin-hPD-1; experiment: competitive ELISA: competitive Ab 15 µg/ml with Biotin-hPD-1; coating Ab Nivolumab 1 µg/ml
Protocol: as §1

[6] = biological target: T4, mPD-1 protein (ELISA coat) (mouse, UniProt Q02242 25-167, limits assumed); experiment: ELISA against mPD-1 ECD-Fc protein (plate coat)
T4 sequence (looked up): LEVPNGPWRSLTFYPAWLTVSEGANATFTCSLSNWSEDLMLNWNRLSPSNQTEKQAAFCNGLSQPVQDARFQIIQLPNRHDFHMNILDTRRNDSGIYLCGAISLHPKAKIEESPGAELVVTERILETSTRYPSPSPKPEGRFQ
Protocol: as §2

Biotin-hPD-1 [7] = biological target: T3, Biotin-hPD-1; experiment: competitive ELISA: competitive Ab 15 µg/ml with Biotin-hPD-1; coating Ab TY101-4G1 1 µg/ml
Protocol: as §1

human PD-1 on cells [8] = biological target: T1, human PD-1 on cells; experiment: cell based RBA (flow cytometry): blocking of Biotin-hPD-L1 binding to CHOK1-hPD-1 cells
Protocol: (§3) The cells were then incubated with Alexa 488 labeled Streptavidin and analyzed using a FACSCanto II.

[9] = biological target: T5, cynomolgus monkey PD-1 on cells (cynomolgus monkey, UniProt B0LAJ3 25-288); experiment: flow cytometry on CHOK1-cPD-1 cells
T5 construct: also called cPD-1; CHOK1-cPD-1

Biotin-hPD-1 [10] = biological target: T3, Biotin-hPD-1; experiment: competitive ELISA: competitive Ab 15 µg/ml with Biotin-hPD-1; coating Ab TY101-01-09 1 µg/ml
Protocol: as §1

human PD-1 on cells [11] = biological target: T1, human PD-1 on cells; experiment: flow cytometry on CHOK1-hPD-1 cells
human PD-1 on cells [12] = biological target: T1, human PD-1 on cells; experiment: cell based RBA (flow cytometry): blocking of Biotin-hPD-L2 binding to CHOK1-hPD-1 cells
Protocol: as §3

hPD-1 protein (ELISA coat), sequence (Q15116 25-167 limits assumed): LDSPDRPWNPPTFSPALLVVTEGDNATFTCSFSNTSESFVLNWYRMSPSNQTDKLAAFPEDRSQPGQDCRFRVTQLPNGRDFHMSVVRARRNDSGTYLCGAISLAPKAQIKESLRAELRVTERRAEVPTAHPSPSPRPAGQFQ
T3 sequence (Q15116 25-167 limits assumed): as above
T1 sequence (Q15116 25-288): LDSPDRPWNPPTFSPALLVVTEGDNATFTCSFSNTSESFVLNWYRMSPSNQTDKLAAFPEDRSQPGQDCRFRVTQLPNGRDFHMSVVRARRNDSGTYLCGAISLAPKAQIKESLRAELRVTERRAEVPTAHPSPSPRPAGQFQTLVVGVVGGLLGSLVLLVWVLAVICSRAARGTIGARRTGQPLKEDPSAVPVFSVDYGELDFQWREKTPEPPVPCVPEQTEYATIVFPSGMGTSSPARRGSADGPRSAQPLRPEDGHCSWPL
T2 sequence (Q15116 25-170): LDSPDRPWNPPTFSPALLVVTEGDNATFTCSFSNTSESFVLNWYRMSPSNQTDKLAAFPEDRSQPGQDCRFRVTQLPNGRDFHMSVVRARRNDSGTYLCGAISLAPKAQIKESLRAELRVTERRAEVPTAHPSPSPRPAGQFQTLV
T5 sequence (B0LAJ3 entry or part of it limits assumed): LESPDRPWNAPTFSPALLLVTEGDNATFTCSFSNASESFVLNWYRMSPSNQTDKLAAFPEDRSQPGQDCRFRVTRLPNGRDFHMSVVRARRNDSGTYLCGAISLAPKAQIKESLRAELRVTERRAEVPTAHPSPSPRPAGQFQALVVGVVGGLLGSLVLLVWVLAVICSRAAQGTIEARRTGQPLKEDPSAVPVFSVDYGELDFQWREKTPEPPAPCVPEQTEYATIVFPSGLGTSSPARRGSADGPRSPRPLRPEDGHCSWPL

B3: Variant 2 (antibody, V domains shown)
VH: EVQLVESGGGLVQPGGSLRLSCAASGFTFSSYTMSWVRQAPGKGLEWVSYISHGGGDTYYADSVKGRFTISRDNSKNTLYLQMNSLRAEDTAVYYCARHSGYERGYYYVMDYWGQGTLVTVSS
VL: DIVMTQSPDSLAVSLGERATINCKASESVDYYGFSFLNWFQQKPGQPPKLLIYAASNRESGVPDRFSGSGSGTDFTLTISSLQAEDVAVYYCQQSKEVPWTFGQGTKLEIKR
notes: Humanized; VH variant a, VK variant b; Constant regions not spelled out; chimeric parent has human IgG4-S228P and human kappa; also called mutant combination 2
Kd (hPD-1 mIg fusion protein): 0.363 nM
koff (hPD-1 mIg fusion protein): 7.64e-05 s⁻¹
kon (hPD-1 mIg fusion protein): 210000 M⁻¹ s⁻¹

B4: TY101-4G1 (antibody, V domains shown)
VH: B3 VH
VL: B3 VL with V3Q, M4L, A12S, E59Q, Y91F
notes: also called TY101 clone TY101-4G1
Inhibition (%) (Biotin-hPD-1 [2]): 94%
Inhibition (%) (Biotin-hPD-1 [3]): 94%
EC50 [4]: 0.15 nM
Max OD450 [4]: 3.01
Inhibition (%) (Biotin-hPD-1 [5]): 94%
Max OD450 [6]: 1.33
binding result [6]: no binding (tested: 100 nM)
Inhibition (%) (Biotin-hPD-1 [7]): 95%
IC50 (human PD-1 on cells [8]): 1.47 nM
Inhibition rate (human PD-1 on cells [8]): 99.5%
EC50 [9]: 1.46 nM
Max MFI [9]: 20700
Inhibition (%) (Biotin-hPD-1 [10]): 94%
EC50 (human PD-1 on cells [11]): 0.94 nM
Max MFI (human PD-1 on cells [11]): 23700
IC50 (human PD-1 on cells [12]): 2.33 nM
Inhibition rate (human PD-1 on cells [12]): 94.7%

B5: TY101-01-09 (antibody, V domains shown)
VH: B3 VH
VL: B3 VL with V3Q, M4L, A12S, E59Q, Y91F
notes: Compared with isotype control hIgG4; also called TY101 clone TY101-01-09
Inhibition (%) (Biotin-hPD-1 [2]): 93%
Inhibition (%) (Biotin-hPD-1 [3]): 94%
EC50 [4]: 0.13 nM
Max OD450 [4]: 3.01
Inhibition (%) (Biotin-hPD-1 [5]): 93%
Max OD450 [6]: 0.71
binding result [6]: no binding (tested: 100 nM)
Inhibition (%) (Biotin-hPD-1 [7]): 95%
IC50 (human PD-1 on cells [8]): 1.15 nM
Inhibition rate (human PD-1 on cells [8]): 99.5%
EC50 [9]: 1.13 nM
Max MFI [9]: 21100
Inhibition (%) (Biotin-hPD-1 [10]): 94%
EC50 (human PD-1 on cells [11]): 0.78 nM
Max MFI (human PD-1 on cells [11]): 23200
IC50 (human PD-1 on cells [12]): 1.76 nM
Inhibition rate (human PD-1 on cells [12]): 95.4%

B6: Variant 8 (antibody, V domains shown)
VH: B3 VH with Q3K, V5L, A61P, Q115K, L118T
VL: DIVMTQSPDSLAVSLGERATINCKASESVDYYGFSFLNWFQQKPGQPPKLLIYAASNRESGVPDRFSGSGSGTDFTLTISSLQAEDVAVYYCQQSKEVPWTFGQGTKLEIK
notes: Humanized; VH variant c, VK variant b; Constant regions not spelled out; also called mutant combination 8
Kd (hPD-1 mIg fusion protein): 0.358 nM
koff (hPD-1 mIg fusion protein): 7.95e-05 s⁻¹
kon (hPD-1 mIg fusion protein): 222000 M⁻¹ s⁻¹

Results, then the binder that gave them:

binding result (human PD-1 on cells [1]): binds
B1: Murine Ab2 (antibody, mouse IgG1, V domains shown)
VH: QVQLQQSGAELARPGASVKMSCKASGYTFTSYTMHWVKQRPGQGLEWIGYINPTTGYTNYNQKFKDKATLTADKSSSTAYMQLSSLTSEDSAVYYCARDDAYYSGYWGQGTTLTVSS
VL: DIQMTQSPASLSVSVGETVTITCRASENIYSNLAWYRQKQGKSPQLLVYAAKNLADGVPSRFSGSGSGTQYSLKINSLQSEDFGSYYCQHFWGTPWTFGGGTKLEIKR
notes: also called anti-hPD-1 mAb 2

Kd (hPD-1 mIg fusion protein): 0.0989 nM
koff (hPD-1 mIg fusion protein): 2.85e-05 s⁻¹
kon (hPD-1 mIg fusion protein): 288000 M⁻¹ s⁻¹
B2: chimeric parental antibody (antibody, human IgG4 S228P, kappa, V domains shown)
VH: EVKLVESGGGLVQPGGSLKLSCAASGFTFSSYTMSWIRQTPEKRLEWVAYISHGGGDTYYPDTVKGRFTISRDNAKNTLYLQMSSLKSEDTAMYYCARHSGYERGYYYVMDYWGQGTSVTVSS
VL: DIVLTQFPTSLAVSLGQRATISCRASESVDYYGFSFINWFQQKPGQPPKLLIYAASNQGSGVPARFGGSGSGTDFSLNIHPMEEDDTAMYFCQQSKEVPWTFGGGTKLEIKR
notes: also called chimeric antibody
